Patent US20200048358A1 (ALLIGATOR BIOSCIENCE, published 2020)
Positions count from the first letter of the chain named.

Legend:
[1] = target: T1, chimeric OX40 construct 1547: Human OX40 with mouse domain 2B, module 3 and domain 4A (aa 83-141) (human; mouse, UniProt P47741 79-139); test: flow cytometry, transfected 293-F cells
T1 construct: domain: 2B, module 3 and domain 4A; On 293-F cells; limits derived as for 1544
T1 sequence: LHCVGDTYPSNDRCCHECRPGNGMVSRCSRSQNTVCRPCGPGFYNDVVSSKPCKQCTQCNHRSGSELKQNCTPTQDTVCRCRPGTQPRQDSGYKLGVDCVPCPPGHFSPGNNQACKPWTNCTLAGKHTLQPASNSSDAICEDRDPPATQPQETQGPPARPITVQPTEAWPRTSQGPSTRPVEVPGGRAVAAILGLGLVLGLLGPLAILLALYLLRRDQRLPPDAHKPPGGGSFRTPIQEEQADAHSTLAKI
Procedure: (§1) The mouse/human chimeras were transiently transfected into FreeStyle 293-F cells (Invitrogen), incubated 48 hours in FreeStyle 293 expression medium (Invitrogen) 37 C, 8% CO₂, 135 rpm. The transfected cells were incubated with human OX40 antibodies, human OX40L (hOX40L, RnD Systems), mouse OX40L (mOX40L, RnD Systems) and controls for 30 min 4° C. and then detected with a-huIgG-PE (Jackson lmmunoresearch) 30 min 4° C. Cells were analyzed with FACS Verse (BD Biosciences). Binding to the different chimeric constructs were calculated as relative (mean fluorescence intensity) MFI compared to the binding of the isotype control.

[2] = target: T2, chimeric OX40 construct 1544: Human OX40 with mouse domains 1A, 1B and 2A (aa 30-81) (human; mouse, UniProt P47741 26-77); test: flow cytometry, transfected 293-F cells
T2 construct: domain: 1A, 1B and 2A; On transiently transfected FreeStyle 293-F cells
T2 sequence: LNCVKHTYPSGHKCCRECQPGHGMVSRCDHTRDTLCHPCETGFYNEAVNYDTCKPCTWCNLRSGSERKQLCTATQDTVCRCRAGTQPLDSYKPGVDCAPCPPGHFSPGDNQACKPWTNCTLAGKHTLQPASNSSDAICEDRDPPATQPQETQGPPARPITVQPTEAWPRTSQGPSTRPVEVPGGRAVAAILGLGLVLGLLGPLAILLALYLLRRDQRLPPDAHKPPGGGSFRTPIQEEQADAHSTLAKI
Procedure: as §1

[3] = target: T3, chimeric OX40 construct 1545: Human OX40 with mouse domains 1B, 2A and 2B (aa 43-107) (human; mouse, UniProt P47741 39-103); test: flow cytometry, transfected 293-F cells
T3 construct: domain: 1B, 2A and 2B; On 293-F cells; limits derived as for 1544
T3 sequence: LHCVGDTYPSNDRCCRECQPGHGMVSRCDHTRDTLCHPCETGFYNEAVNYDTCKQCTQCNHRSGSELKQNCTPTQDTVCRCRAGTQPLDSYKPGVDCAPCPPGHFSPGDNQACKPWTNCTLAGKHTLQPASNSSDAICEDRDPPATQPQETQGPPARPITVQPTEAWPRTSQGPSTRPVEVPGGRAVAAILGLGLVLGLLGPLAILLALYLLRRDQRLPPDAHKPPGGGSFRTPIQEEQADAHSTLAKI
Procedure: as §1

[4] = target: T4, chimeric OX40 construct 1546: Human OX40 with mouse domains 2A, 2B and module 3 (aa 66-126) (human; mouse, UniProt P47741 62-124); test: flow cytometry, transfected 293-F cells
T4 construct: domain: 2A, 2B and module 3; On 293-F cells; limits derived as for 1544
T4 sequence: T1 sequence with G40E, P41T, D46E, V47A, S49N, S50Y, K51D, P52T, N111D
Procedure: as §1

[5] = target: T5, construct 84: Construct containing the full length OX40 sequence (human, UniProt P43489 29-277); test: flow cytometry, transfected 293-F cells
T5 construct: On transiently transfected FreeStyle 293-F cells; also called human OX40 (full length, on 293-F cells)
T5 sequence: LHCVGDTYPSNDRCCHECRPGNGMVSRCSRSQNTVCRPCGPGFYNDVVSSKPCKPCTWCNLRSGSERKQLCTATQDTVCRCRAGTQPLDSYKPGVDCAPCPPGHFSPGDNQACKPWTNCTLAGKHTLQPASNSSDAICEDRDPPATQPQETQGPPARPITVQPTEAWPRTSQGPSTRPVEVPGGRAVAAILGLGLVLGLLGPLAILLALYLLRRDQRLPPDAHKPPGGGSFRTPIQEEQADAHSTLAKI
Procedure: as §1

[6] = target: T6, chimeric OX40 construct 1548: Human OX40 with mouse module 3 and domains 4A and 4B (aa 108-167) (human; mouse, UniProt P47741 104-165); test: flow cytometry, transfected 293-F cells
T6 construct: domain: module 3 and domains 4A and 4B; On 293-F cells; limits derived as for 1544
T6 sequence: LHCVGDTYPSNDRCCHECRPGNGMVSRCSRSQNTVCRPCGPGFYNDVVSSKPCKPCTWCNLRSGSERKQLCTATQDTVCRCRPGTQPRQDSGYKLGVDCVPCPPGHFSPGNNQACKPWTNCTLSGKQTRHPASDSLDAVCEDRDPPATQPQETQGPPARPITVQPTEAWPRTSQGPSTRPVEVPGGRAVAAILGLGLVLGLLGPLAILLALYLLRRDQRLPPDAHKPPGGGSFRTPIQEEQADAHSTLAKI
Procedure: as §1

[7] = target: T5, construct 84: Construct containing the …; test: flow cytometry on human/mouse OX40 chimeras
Procedure: as §1

CTLA-4 (BMS, Orencia) = CTLA-4 (BMS, Orencia) (human, UniProt P16410 38-152); test: cell-based or functional assay
Sequence of CTLA-4 (BMS, Orencia) (P16410 38-152 limits assumed): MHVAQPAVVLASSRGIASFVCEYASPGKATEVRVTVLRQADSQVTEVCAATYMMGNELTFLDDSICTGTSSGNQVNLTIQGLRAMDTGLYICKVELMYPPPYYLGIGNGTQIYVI

B1: anti-OX40 antibody 1168/1135 (antibody, V domains shown)
VH: EVQLLESGGGLVQPGGSLRLSCAASGFTFSGSSMSWVRQAPGKGLEWVSSISYYGGYTYYADSVKGRFTISRDNSKNTLYLQMNSLRAEDTAVYYCARYFPHYYFDYWGQGTLVTVSS
VL: not shown
notes: Tested as IgG
relative MFI compared to isotype control [1]: 1 | relative MFI compared to isotype control [2]: 13.2 | relative MFI compared to isotype control [3]: 46.6 | relative MFI compared to isotype control [4]: 0.9 | relative MFI compared to isotype control [5]: 29.6 | relative MFI compared to isotype control [6]: 1

B2: anti-OX40 antibody 1542/1135 (antibody, V domains shown)
VH: EVQLLESGGGLVQPGGSLRLSCAASGFTFGSSSMYWVRQAPGKGLEWVSGIGYYSYSTSYADSVKGRFTISRDNSKNTLYLQMNSLRAEDTAVYYCARGYPHHYFDYWGQGTLVTVSS
VL: not shown
notes: Tested as IgG
relative MFI compared to isotype control [1]: 1 | relative MFI compared to isotype control [2]: 7.1 | relative MFI compared to isotype control [3]: 40.2 | relative MFI compared to isotype control [4]: 0.9 | relative MFI compared to isotype control [5]: 29.4 | relative MFI compared to isotype control [6]: 1.2

B3: anti-OX40 antibody 1164/1135 (antibody, V domains shown)
VH: B2 VH with G30Y, S31G, G52Y, Y53S, Y54S, S55G, Y56G, S57Y, Y100V, H103G
VL: not shown
notes: Tested as IgG
relative MFI compared to isotype control [1]: 1 | relative MFI compared to isotype control [3]: 37.3 | relative MFI compared to isotype control [4]: 0.9 | relative MFI compared to isotype control [5]: 27.5 | relative MFI compared to isotype control [6]: 1

B4: anti-OX40 antibody 1524/1525 (antibody, V domains shown)
VH: EVQLLESGGGLVQPGGSLRLSCAASGFTFGSYYMGWVRQAPGKGLEWVSSIGSYYGYTYYADSVKGRFTISRDNSKNTLYLQMNSLRAEDTAVYYCARHDYGALDYWGQGTLVTVSS
VL: DIQMTQSPSSLSASVGDRVTITCRASQSISSYLNWYQQKPGKAPKLLIYAASSLQSGVPSRFSGSGSGTDFTLTISSLQPEDFATYYCQQYGPSGLFTFGQGTKLEIK
notes: Tested as IgG
relative MFI compared to isotype control [1]: 1 | relative MFI compared to isotype control [2]: 1.5 | relative MFI compared to isotype control [3]: 0.9 | relative MFI compared to isotype control [4]: 0.9 | relative MFI compared to isotype control [5]: 31.4 | relative MFI compared to isotype control [6]: 15.4

B5: anti-OX40 antibody 1526/1527 (antibody, V domains shown)
VH: EVQLLESGGGLVQPGGSLRLSCAASGFTFSGYSMYWVRQAPGKGLEWVSGIGYSGYGTYYADSVKGRFTISRDNSKNTLYLQMNSLRAEDTAVYYCARYYFHDYAAYSLDYWGQGTLVTVSS
VL: B4 VL with P93S, S94D, G95S, F97L
notes: Tested as IgG
relative MFI compared to isotype control [1]: 1 | relative MFI compared to isotype control [2]: 1.1 | relative MFI compared to isotype control [3]: 1.3 | relative MFI compared to isotype control [4]: 0.9 | relative MFI compared to isotype control [5]: 21.4 | relative MFI compared to isotype control [6]: 12.7

B6: anti-OX40 antibody 1482/1483 (antibody, V domains shown)
VH: EVQLLESGGGLVQPGGSLRLSCAASGFTFSSYAMSWVRQAPGKGLEWVSYISYYSGYTYYADSVKGRFTISRDNSKNTLYLQMNSLRAEDTAVYYCARGYGYLDYWGQGTLVTVSS
VL: DIQMTQSPSSLSASVGDRVTITCRASQSISSYLNWYQQKPGKAPKLLIYAASSLQSGVPSRFSGSGSGTDFTLTISSLQPEDFATYYCQQYGSLLTFGQGTKLEIK
notes: Tested as IgG
relative MFI compared to isotype control [1]: 1 | relative MFI compared to isotype control [2]: 8.4 | relative MFI compared to isotype control [3]: 44.4 | relative MFI compared to isotype control [4]: 0.9 | relative MFI compared to isotype control [5]: 24.9 | relative MFI compared to isotype control [6]: 1.1

B7: human OX40L (hOX40L, RnD Systems) (ligand, UniProt P23510 51-183, looked up)
chain: QVSHRYPRIQSIKVQFTEYKKEKGFILTSQKEDEIMKVQNNSVIINCDGFYLISLKGYFSQEVNISLHYQKDEEPLFQLKKVRSVNSLMVASLTYKDKVYLNVTTDNTSLDDFHVNGGELILIHQNPGEFCVL
notes: also called human OX40 ligand
binding result [7]: binds

B8: bispecific molecule 1526/1585 (bispecific antibody, human IgG1, kappa)
heavy: not shown
light: DIQMTQSPSSLSASVGDRVTITCRASQSISSYLNWYQQKPGKAPKLLIYAASSLQSGVPSRFSGSGSGTDFTLTISSLQPEDFATYYCQQYGSDSLLTFGQGTKLEIKRTVAAPSVFIFPPSDEQLKSGTASVVCLLNNFYPREAKVQWKVDNALQSGNSQESVTEQDSKDSTYSLSSTLTLSKADYEKHKVYACEVTHQGLSSPVTKSFNRGECSGGGGSGGGGSAPLKIQAYFNETADLPCQFANSQNLSLSELVVFWQDQENLVLNEVYLGKERFDSVDSKYMGRTSFDSDSWTLRLHNLQIKDKGRYQCIIHHKKPTGMINIHQMNSELSVLA
Mean IL-2 level (pg/ml) induced at 1.5 nM bispecific antibody or control (CTLA-4 (BMS, Orencia)): 3200 pg/mL
